The data set addresses T1, MqsA (Escherichia coli (strain of the protein not stated)) (UniProt Q46864).
T1 sequence: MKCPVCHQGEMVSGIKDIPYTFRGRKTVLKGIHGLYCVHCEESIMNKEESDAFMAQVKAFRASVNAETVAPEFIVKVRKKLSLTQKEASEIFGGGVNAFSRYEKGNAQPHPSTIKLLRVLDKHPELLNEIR
Nature of the data set: EMSA. Conditions: 10 mM Tris-HCl pH 7.5, 50 mM KCl, 1 mM DTT, 1 ug poly(dI.dC), 30-50 fmol labeled probe, ambient temperature, 1 h; 6% gel, 0.5x TBE. On the technique in general: A gel shift assay detects complexes by their altered migration in electrophoresis.

Drawing on article PMC4894380, this text covers binding for 1 sequence.

Regarding “CGTGTATGTGGTGTGCGTTTTTCCATAACCCCCGCCTCCCTGTTACTTTAGTTATAACCTAAAAGGTTAATTACAGCAATGAAAAAGCACCTAAAAGGTTAGTTAGATGTACGGAGATAGTGACCACACAAAACGTATTCTTTAAGGAAAGTGATTGACCATATAAGAAAGTGGCGCATTAGTAGCGCCAGTTTGAAGCAGGAATTTATAAGGGAAGCTGGAGTCAGGCATCAC (double strand) [p-mqsRA (234 bp)]”, the binding entry is “binds”.
